Source: patent US12252714B2, “Halogenation of complex organic compounds” (REGENTS OF THE UNIVERSITY OF MICHIGAN, priority 2018, dated 2025)
Residue numbers refer to the chain shown, from its start. Names may count otherwise. Where two headings read alike, the source gives them in different places.

B1: Rdc2: eukaryotic FDH Rdc2, literature comparison (protein, UniProt B3FWT7 22-519, looked up)
Flavin-dependent halogenase …: AAALAREGNDVVLLEADQHPRYHIGESMLPSLRPLLRFIDLEDKFDAHGFQKKLGAAFKLTSKREGSHGPRGYSWNVVRSESDEILFNHARESGAQAFQGIKINAIEFEPYEEEYPNGEKVANPGKPTSAKWSSKDGSSGDIAFKYLVDATGRIGIMSTKYLKNRHYNEGLKNLAIWGYYKNNIPWAQGTPRENQPFFEGMRDGAGWCWTIPLHNGTVSVGAVMRKDLFFEKKKSLGENATNTQIMAECMKLCPTIGELLAPAELVSDIKQATDYSYSATAYAGPNFRIVGDAGCFIDPFFSSGHHLAVAGALAAAVSINASIKGDCTEYEASRWHAKKVDEGYTLFLLVVMAALKQIRMQENPVLSDVDEDGFDRAFQFLRPEAVKKFTKEDVAQTIDFAVHALNNMAELDMDIPEHMINGDKEGENGVTNGNNGAAKTAGLASNMEKLTNDEEKVLNGLRILGKAAPGGTLADFEGTAIDGLMPRLEHGKLGLNKV
B2: MalA′: flavin-dependent halogenase from M. graminicola, generated by site-directed mutagenesis of malA: L276P/R428P (protein, UniProt L0E155 1-667, looked up, variant L276P R428P)
Flavin-dependent halogenase …: MAPTPKYTFTERAAAGNLSDAEILNSNNPTGSELPDESDVVVGGAGIHGLIYALHASKYKPNNLKISVIEKNTRPGYKIGESTLPIFYTWCKLHGISAAYLLRLFGLKDGLCFYFLDRENQGQYTDFCSVGAPGLVLASLQIERPMSELLFTILAQRNGVNVYHGREVDFKSTVVQGGGQGNKIAVSRGKYDSTPKTIDSALFVDATGRFRQFCSKKAPRHRFDGWNCNAFWGYFTAPKDESKIPFDLYEGDHTNHLCFPEGWVWVIRLPSWEGSPIANLMDMVTYILECADAGVPGDELPSSEELARMFGLKFQWVTSIGFAVRNDVKYPEDLSAYGTREAEQKFNYFVQKYELLQQFMSNFELIENLYGPGTTWFIRKTLAYQSPVVSGPGWLAIGDACGFTNPLYSPGINVGMSTSTWAAQLSHPIVEIGKSAPADAAESSIRKLLVPYDDYCKSLVPALEQMNRFNYVCYRDTRLGPQVACLWQFFAGIERYLSDVNIETFAHYAIKWVWGAMVPEYQQVAQKCIEHIETVPLDERLPDAMVDELLAFSNRIKSAAVAADDFSLRWDAILRSFDRSLNFVEGKTSRDIYTRQCSGCGAWLQLRPDWKKCHSCGLLGTEPQTAVTFDPPLTAEEEALLYAAWNTAPKYDPSKELKLPTPTRPAA
B3: MalA G131S: C9-selective MalA halogenase mutant (protein, UniProt L0E155 1-667, looked up, variant G131S)
Flavin-dependent halogenase …: B2 Flavin-dependent halogenase … with G131S, P276L, P428R
B4: D109A: MalA halogenase D109A mutant (protein, listed as Malbranchea aurantiaca)
chain: B2 Flavin-dependent halogenase … with D109A, P276L, P428R
modifications: Wild-type MalA protein
notes: MalA halogenase D109A mutant
B5: S129A/I493S: C9-selective MalA halogenase double mutant (protein, listed as Malbranchea aurantiaca)
chain: B2 Flavin-dependent halogenase … with S129A, P276L, P428R, I493S
modifications: MalA (S129A/I493S) protein
B6: E494D: MalA halogenase variant, Glu494 substituted with aspartate (protein, listed as Malbranchea graminicola)
chain: B2 Flavin-dependent halogenase … with E494D
modifications: Wild-type MalA' protein
notes: MalA halogenase variant, Glu494 substituted with aspartate
B7: MalA F489H: MalA halogenase variant, Phe489 substituted with histidine (protein, UniProt L0E155 1-667, looked up, variant F489H)
Flavin-dependent halogenase …: B2 Flavin-dependent halogenase … with P276L, P428R, F489H
B8: MalA S129 Å/P85S: C8-selective MalA halogenase double mutant (protein, UniProt L0E155 1-667, looked up, variant S129A P85S)
Flavin-dependent halogenase …: B2 Flavin-dependent halogenase … with P85S, S129A, P276L, P428R
B9: MalA H253A: MalA halogenase variant, His253 substituted with alanine (protein, UniProt L0E155 1-667, looked up, variant H253A)
Flavin-dependent halogenase …: B2 Flavin-dependent halogenase … with H253A, P276L, P428R
B10: E494A: MalA halogenase variant, Glu494 substituted with alanine (protein, UniProt L0E155 1-667, looked up, variant E494A)
Flavin-dependent halogenase …: B2 Flavin-dependent halogenase … with P276L, P428R, E494A
B11: MalA W265A: MalA flavin-dependent halogenase variant with W265A substitution (protein, UniProt L0E155 1-667, looked up, variant W265A)
Flavin-dependent halogenase …: B2 Flavin-dependent halogenase … with W265A, P276L, P428R
B12: MalA K108A: MalA halogenase mutant of the catalytic lysine Lys108 (protein, UniProt L0E155 1-667, looked up, variant K108A)
Flavin-dependent halogenase …: B2 Flavin-dependent halogenase … with K108A, P276L, P428R
B13: MalA W263A: MalA flavin-dependent halogenase variant with W263A substitution (protein, UniProt L0E155 1-667, looked up, variant W263A)
Flavin-dependent halogenase …: B2 Flavin-dependent halogenase … with W263A, P276L, P428R
B14: E494Q: MalA halogenase variant, Glu494 substituted with glutamine (protein, UniProt L0E155 1-667, looked up, variant E494Q)
Flavin-dependent halogenase …: B2 Flavin-dependent halogenase … with P276L, P428R, E494Q
B15: MalA H253F: MalA halogenase variant, His253 substituted with phenylalanine (protein, UniProt L0E155 1-667, looked up, variant H253F)
Flavin-dependent halogenase …: B2 Flavin-dependent halogenase … with H253F, P276L, P428R

Columns and labels:
[1] = cited from earlier work
[2] = MalA biochemical activity assays, mutants versus wild-type MalA; details: for site-selectivity of chlorination: chlorination of compound 2, C8 versus C9; for site-selectivity profile of bromination: bromination of compound 2
Method: Biochemical activity assays were performed in a 100 μL volume with the following components: 18 μM MalA, 54 μM HpaC flavin reductase,^3 100 μM FAD, 50 mM NaCl, 250 μM substrate, 5 mM NADH, and brought to total volume with reaction buffer (same as storage bufferNaBr). The chlorination reactions proceeded for 20 minutes and the bromination reactions proceeded overnight. The reactions were extracted with ethyl acetate ([…], in triplicate) and dried down under nitrogen gas. The dried extract was resuspended in LC/MS grade methanol to a concentration of around 10 μM for LC/MS analysis. High resolution mass spectrometry was performed using electrospray ionization on an Agilent quadrupole time-of-flight spectrometer (Q-TOF 6500 series). Biochemical activity was monitored via the following HPLC method using acetonitrile and water: 65% acetonitrile for 5 minutes, gradient over 10 minutes to 95% acetonitrile, 95% acetonitrile for 5 minutes, gradient over 2 minutes to 65% acetonitrile, 65% acetonitrile for 11 minutes to re-equilibrate with a flow rate of 0.3 mL/minute, monitoring at 240 nm on a Phenomenex Lux cellulose-3, cellulose Tris (4-methylbenzoate) 250×4.6 mm column.

Molecule	halogenase activity relative to wild-type MalA ([2]; chlorination of compound 2)	site-selectivity of chlorination [2]	other results
B1	–	–	catalytic efficiency ([1]; initial chlorination reaction): 2.93 min⁻¹ mM⁻¹; catalytic efficiency ([1]; second chlorination reaction): 0.11 min⁻¹ mM⁻¹
B2	essentially identical to MalA	–	–
B3	–	C9-selective	–
B4	very low activity	–	–
B5	–	C9-selective	–
B6	slight activity	–	–
B7	significantly decreased	–	–
B8	–	C8-selective	–
B9	–	selective for producing the C9-chlorinated compound 3	site-selectivity profile of bromination [2]: same product profile as the wild-type MalA
B10	inactivated	–	–
B11	drastic decrease in activity	–	–
B12	inactive	–	–
B13	–	–	production of compound 1 relative to wild-type MalA ([2]; chlorination of compound 2): 5%; production of compound 3 relative to wild-type MalA ([2]; chlorination of compound 2): 50%; production of compound 4 relative to wild-type MalA ([2]; chlorination of compound 2): 60%
B14	inactivated	–	–
B15	–	selectivity for producing the C8-chlorinated compound 4	site-selectivity profile of bromination [2]: same product profile as the wild-type MalA
